Common to all, as to assay: cell-based or functional assay
For assay [1], the target named is HIV Env, isolate 19252094_A5_G2 (HIV).
Assay [2] has as its target HIV Env, isolate 20198102_E9_G1 (HIV).
Assay [3] has as its target HIV Env, isolate So405_T24_5 (HIV).
Assay [4] deals with HIV Env, isolate CAP323.2.00_B6.45 (HIV).
Assay [5] has as its target HIV Env, isolate B005018-8_F6.3 (HIV).
The target of assay [6] is HIV Env, isolate 6146.v7.c23 (HIV).
Assay [7] concerns the target HIV Env, isolate 6040.v4.c15 (HIV).
In assay [8] the target is HIV Env, isolate Ce704810053_2B7 (HIV).

A value given as a limit tells only on which side of the number the result lay.

B1: ePGDM9 (antibody, V domains shown)
VH: QAQLVQSGPEVRKPGTSVKVSCKNPGNTLTTYDLHWVRQVPGQGLQWMGWISHEGDKKVIVERFKAKVTIDWDRSTNTAYLQLSGLTSEDTAVYYCAKGSKHRLRDYALYDEDGALNWAVDVDYLANLEFWGQGTAVTVSS
VL: DIVLTQSPLSLSVTPGESASISCKSSQSLIHGDRNNYLAWYVQKPGRSPQLLIDLASERASGVPDRFSGSGSRKDFTLKISRVETEDVGTYYCMQGRESPWTFGQGTKVDIK
One may read the IC50 as the concentration that inhibits the measured activity by half. The low end stands for higher potency, the high end for lower potency. Usually IC80 stands for the point of the concentration-response curve where the effect stands at 80%. Low values mean greater potency, high ones weaker potency. As to B1, the “IC50” value in assay [1] is 1 ng/mL; in assay [2] it was 7 ng/mL; in assay [3], 14300 ng/mL; in assay [4], 4 ng/mL; in assay [5], less than 0.6 ng/mL; in assay [6], 19 ng/mL. Also, the “IC50” value was less than 0.6 ng/mL in assay [7] and 3 ng/mL in assay [8]. In addition, the “IC80” value in assay [1] is 3 ng/mL; in assay [2] it was 21 ng/mL; in assay [3], more than 50000 ng/mL; in assay [4], 16 ng/mL; in assay [5] it was 3 ng/mL; in assay [6], 249 ng/mL. Moreover, the 80% effect concentration (IC80) in assay [7] worked out at 3 ng/mL; in assay [8] it was 7 ng/mL.

(Values after patent publication US20230134571A1 (INTERNATIONAL AIDS VACCINE INITIATIVE, published 2023).)
